{
  "source": "the supplement of paper PMC9170038",
  "data": [
    {"tested_on": "MS2 coat protein", "assay": "apparent KD of MS2 coat protein; higher = weaker reporter binding", "settings": "Eterna round: R107; input ligand: arginine 13.2 mM", "outline": "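Normalised binding curves from single clusters were fitted, and the median fit for each design is given as apparent KD. The clusters held designed RNA switches transcribed on-chip from Illumina sequencing clusters. These were titrated with SNAP-549-labelled MS2 coat protein (twofold steps from 0.7 or 1.5 nM to 3 µM, 0.8–1.5 h to 10–20 min per step) in 100 mM Tris-HCl pH 7.5, 80 mM KCl, 4 mM MgCl2, without or with constant ligand.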", "units": {"apparent KD of MS2 coat protein": "nM"}, "values": [
      {"sequence": "GGCAAAAGGUCGGCCGCCACUGUAGGAUGUGUUCUUUCACAUGAGGAUCACCCAUGUUGUUAUUAUAGGACCGGGAUUUUAGGAC [39MS split4]", "apparent KD of MS2 coat protein": 20.6},
      {"sequence": "ACGAGACGUCUGGAUACCAGCCCAGCGAUAAACAUGAGGAUCACCCAUGUCAAACCACCCGGCCCUUGGCAGCCACGUACCUCAC [theeternabot_sameState_MS2_Theo_B_10]", "apparent KD of MS2 coat protein": 15.9},
      {"sequence": "ACCGGCACCUAGGAUACCAGAUCCACAACAAACAUGAGGAUCACCCAUGUAUAAAGUGGUAUCCCUUGGCAGCCUGUGACAAUCG [theeternabot_sameState_MS2_Theo_B_19]", "apparent KD of MS2 coat protein": 17},
      {"sequence": "AAUAAUAAGGCGGCCGCCACUACACAUGAGGAUCACCCAUGUCUCGCGGGCUUGCGUUGGGAUUGUAGGACCGGGCCAAUAAUAA [Exclusion - Tryptophan B (Freestyle 11)]", "apparent KD of MS2 coat protein": 15.2},
      {"sequence": "ACAUGAGGAUCACCCAUGUUUGAUGUUCCUCGAGGACCGGUACGGCCGCCACUCGAACGAGUGGCGCGCGAGCGCGCGCUCGCGC [aRa]", "apparent KD of MS2 coat protein": 11.4},
      {"sequence": "AAUGUAAUAGUCGUACUCUUACACUGAGAAGGAGCGCGAAAGUUCGCAGGUAGGUCGCUCAGUUAUACAUGAGGAUCACCCAUGU [Bebemaata]", "apparent KD of MS2 coat protein": 24.1},
      {"sequence": "CGAUAGAUACGAAGGAGCGACAUGAGGAUCACCCAUGUCUACCACGUCGAAAGACGCUCAUGUCAGGUAGGUCGCGUAUUUAUCG [Astros-Eli-mod8]", "apparent KD of MS2 coat protein": 60.3},
      {"sequence": "AACAUGAGGAUCACCCAUGUACCUUUCGAUCGAGGACCGGUACGGCCGCCACUCGAAAACAUGAGGAUCACCCAUGUUCAACAGG [Tryp A SS t3]", "apparent KD of MS2 coat protein": 58.7},
      {"sequence": "UUCACAUGGUAUGAAUAUACAUAUAAGAAACGAGGACCGGUACGGCCGCCACUCGUGCCGGAAACAUGAGGAUCACCCAUGUGUU [AK1.1 Exclusion TrypA mod IceBolt]", "apparent KD of MS2 coat protein": 27},
      {"sequence": "ACACCAUACAUGAGGAUCACCCAUGUUACACGAGGACCGGUACGGCCGCCACUCGAAUUCAGGAAACCUCGGAUAAUAUUGUGAA [JR_SS-TryptA_Sub001]", "apparent KD of MS2 coat protein": 22.3},
      {"sequence": "UGUAUGGACUGAAGGAGCGGGUUGAUAACCUGAGGAUCAUCCAGGUAAAAGGCGAAAGCCGCCCAGGUAGGUCGCAGUCCAUACU", "apparent KD of MS2 coat protein": 174},
      {"sequence": "UUAUAAGUACCGGUCCUCAGAUCCUCAUGACGAGGACCGGUACGGCCGCCACUCGAAACAUGAGGAUCACCCAUGUAAUAAUACC [Brourdmod12]", "apparent KD of MS2 coat protein": 36.6},
      {"sequence": "UUUUUUAUUGGGUAUAGAAUAUUAACUGAAGGAGCGUGGUAUUACACAGGUAGGUCGCAGUUUUUACAUGAGGAUCACCCAUGUU [JR_SSArginiA_Sub010]", "apparent KD of MS2 coat protein": 36.1},
      {"sequence": "GUUGAGACCUCGGCCGCCACUCGCCAUGAGGAUCUCCCAUGUAACAUGAGGAUCACCCAUGUACUGAGGACCGGGAGGUCCUAGU [Same State Tryptophan B GF 15]", "apparent KD of MS2 coat protein": 17.2},
      {"sequence": "GGGAGGUAGGCGGCCGCCACUGAUUUUCAUAUAUAUAUAACAUGAGGAUCACCCAUGUAGAUAUACAGGACCGGGCCUAUUUUUU [aaaF]", "apparent KD of MS2 coat protein": 30.2},
      {"sequence": "AGCGCAGGUCCUGAUACCAGAGACAUGAGGAUCACCCAUGUCCGAUGGUCCUGCCUCAGGCUCCCUUGGCAGCAGGGCUUGUGCU [Exclusion Theophylline B GF10]", "apparent KD of MS2 coat protein": 10.6},
      {"sequence": "GUAUAAAGAAAACUUUAUACAGUGGGUGAACGAGGACCGGUACGGCCGCCACUCGGACAUGAGGAUCACCCAUGUCCAUGUGAAA [AstrosExyTryA#9]", "apparent KD of MS2 coat protein": 14.4},
      {"sequence": "ACAUGAGGAUCACCCAUGUAACAAACAGAAGGAGCGUGAAAGAACACAGGUAGGUCGCUGAACUUAAUGAAUACUCAUUAGAUCC [JR_Nu_SSArginiA_Sub027]", "apparent KD of MS2 coat protein": 13.4},
      {"sequence": "ACGUUUUAGUCGGCCGCCACUGUUUUCAUGUUCAACAUGAGGAUCACCCAUGUACCUUUUUUUAUCAGGACCGGGACGUAAUAGA [JR_SSTryptoB_Sub004]", "apparent KD of MS2 coat protein": 47.7},
      {"sequence": "UCGCCCAGAAAGGAUUCCUGGGAUAUGGAAGGAGCGCUGAUGCCAGCAGGUAGGUCGCCAACGGACAUGAGGAUCACCCAUGUAC [Same State - Arginine A (Freestyle 7)]", "apparent KD of MS2 coat protein": 15.4},
      {"sequence": "GAGCUGAUGUAGAAAUUUUAUUUAUGAGAUACCAGUACAGAAAUGUACCCUUGGCAGCUCAUUUUUACAUGAGGAUCACCCAUGU [Ex Theophylline A 14]", "apparent KD of MS2 coat protein": 13.5},
      {"sequence": "AUGUAGAACCGAAGGAGCGCGAUAACAUGAGGAUCACCCAUGUAGUUUUGGUGGCUUCGAUCGCAGGUAGGUCGCGGAAGUAGUA [#03 Exclusion - Arginine B]", "apparent KD of MS2 coat protein": 37.9},
      {"sequence": "ACAUGAGGAUCACCCAUGUGGCGUCUUGAUACCAGACGAGAAGUAGUCCCUUGGCAGCAAAUACGUGAGGAUCACACAUGUGCGA [cccmullin3]", "apparent KD of MS2 coat protein": 24.4},
      {"sequence": "ACAUGAGGAUCACCCAUGUGCAGCACGGAUACCAGCGUCCUAGUGCGCCCUUGGCAGCCGGACAUGAGGAUCACCCAUGUGUGGG [Exclusion Theophylline A GF30]", "apparent KD of MS2 coat protein": 50.2},
      {"sequence": "ACAUUGCGCUCGGCCGCCACUGGCUUAUGAUUAUAAGCAUUAAUGAACAUGAGGAUCACCCAUGUCAGGACCGGGAGCGAACCAU [SSTryp B #7]", "apparent KD of MS2 coat protein": 13.6},
      {"sequence": "AAUGCCGGAUCGGCCGCCACUGGUUGGCUCUGUGUACAUGAGGAUCACCCAUGUCCAUCCCAAACCAGGACCGGGAUCUUUGUGU [Veonmale]", "apparent KD of MS2 coat protein": 14.6},
      {"sequence": "UCUUGGUCCGCAAGGACCUUGAGUUGCGAUACCAGCACGGUAACGUGCCCUUGGCAGCGCACAUGAGGAUCACCCAUGUGGUGUU [#1 Exclusion - Theophylline A Attempt #16 (HarryS)]", "apparent KD of MS2 coat protein": 82.3},
      {"sequence": "ACAUGAGGAUCACCCAUGUAAUCAUCAGAAGGAGCGUGGAAUAACACAGGUAGGUCGCUGAUGUUAUAUUAAUCUUAUUCGUAAA [JR_ExcArginiA_Sub003]", "apparent KD of MS2 coat protein": 22},
      {"sequence": "GAGUAGAGGACGGCCGCCACUGAACAUGAGGAUCACCCAUGUCGUGAUCCGUUACCUAAAGAAGAUAGGACCGGGUCAUGUACUC [Exclusion Tryptophan B GF 19]", "apparent KD of MS2 coat protein": 28.9},
      {"sequence": "GCUAGUGGCAGAAGGAGCGACAUUUAUAGUGGUCGAUACAUGAGGAUCACCCAUGUACUAUGUCAGGUAGGUCGCUGCCACUAGC [EAB NP+V+V2 #5]", "apparent KD of MS2 coat protein": 31.6},
      {"sequence": "AGCGACAUGCGUGAUACCAGCUACAUGAGGAUCACCCAUGUACGUCAGUAAUGACUGUGUAGCCCUUGGCAGCAUAAUGCAUGUC [Exclusion - Theophylline B (Freestyle 18)]", "apparent KD of MS2 coat protein": 36.1},
      {"sequence": "GGUACAUGAGGAUCACCCAUGUAUUAGUGCCGAGGACCGGUACGGCCGCCACUCGCUUCACAUGAGGAUCACCCAUGUGUCACAG [SSTA DOUBLE!!! :-D #13]", "apparent KD of MS2 coat protein": 22.4},
      {"sequence": "UCGCCCAGGAUGGAAUCCUGGGAUAUGGAAGGAGCGCUGAUGCCAGCAGGUAGGUCGCCAACGGACAUGAGGAUCACCCAUGUAC [Same State - Arginine A (Freestyle 9)]", "apparent KD of MS2 coat protein": 17.7},
      {"sequence": "ACAUGAGGAUCACCCAUGUAGUGGCACGAUACCAGCUGAUCCCGUGGCCCUUGGCAGCGUCCGGUGUGGUGCGCCGGGUUGGAGC [BBBMULLIN]", "apparent KD of MS2 coat protein": 38}
    ]}
  ]
}
